Test results from the Immune Epitope Database (IEDB).

What follows are sequences tested against HLA-A*02:01 (assay: IEDB peptide-MHC binding, purified MHC/direct/fluorescence; filed as Kd, often an IC50 or EC50 that approximates it; ≥ and ≤ were set here for values at or beyond the usual limits of such assays). Details: source organism: Influenza A virus (A/Puerto Rico/8/1934(H1N1)).

Sequence | Kd [nM]
FMQALHLLL | 13
GMFNMLSTV | 23
MMMGMFNMLST | 36
FLAMITYMT | 253
LLQNSQVYS | 1370
WMMAMKYPITA | 75
FLLMDALKLSI | 24
MMGMFNMLSTV | 51
IILKANFSV | 45
FLKDVMESM | 51
RMGAVTTEV | 133
FLARSALIL | 0.9
GMFNMLSTVL | 384
WMMAMKYPI | 36
SLVGIDPFRL | 70
VLMEWLKTRPI | 101
YLIRALTLNTM | 46
